In patent US7052704B2, “Methods and compositions for lipidization of hydrophilic molecules” (University of Southern California, priority 1995, dated 2006):

Experiments:
C3H 10T1/2 cells = assay: Plating efficiency in conjunction with transformation assay; type: cell-based; conditions: 200 cells/dish, 10 days; conjugates 1.0 μg/ml after MCA 1 μg/ml 24 hr
Description: The plating efficiency (PE) of the cells was also studied in conjunction with each of the transformation assays. To determine the PE of the cells in the different treatment groups, cells (200 cells/dish) were seeded into three 60-mm petri dishes per experiment group and treated in the identical manner as the transformation assay cells. The cells in these assays were terminated at 10 days, fixed with 100% methanol, and stained with giemsa; the colonies of 50 cells or more visible under a microscope were then counted. The plating efficiency is defined as the (number of colonies/number of cells seeded)*100.

[1] = system: C3H 10T1/2(clone 8) cells; assay: In vitro transformation assay (MCA-induced); type: cell-based; conditions: for transformed foci in the dishes scored / Fraction of dishes containing transformed foci / No. of dishes with transformed foci/No. of dishes: MCA 1 μg/ml 24 hr, then conjugates 1.0 μg/ml for first three weeks; for Fraction of dishes containing transformed foci / No. of dishes with transformed foci/No. of dishes: scored at six weeks; for retention of the biological (anti-transformation) activity of BBI: 1.0 μg/ml
Description: Transformation assays were carried out using C3H 10T1/2(clone 8) cells according to the published recommendations [Reznikoff, C. A. et al. (1973) Cancer. Res. 33, 3239–3249; Reznikoff, C. A. et al. (1973) Cancer. Res. 33, 3231–3238]. Stock cultures of mycoplasma-free cells were maintained by passing 50,000 cells per 75 cm^2 flask every seven days. Using this schedule, the cells were always passed approximately 2 days before reaching confluence. The stock culture was grown in Eagle's basal medium supplemented with 10% FBS, penicillin (100 units), and streptomycin (100 μg) and used for the transformation assays at passages of 9 to 14. The cells were passed by treating the stock cells with trypsin (0.1%) in PBS for 5 min and quenching the trypsin with 5 ml of the medium. This procedure was adapted to minimize spontaneous transformation in the stock cultures and maximize the plating efficiency in the petri dishes. The FBS stock used in the cultures was pre-screened to ensure that the serum was able to support the expression and the growth of the transformed cells.
For the transformation assays, C3H 10T1/2 cells (1000/dish) were seeded into 60 mm petri dishes and allowed to grow in a humidified 5% CO2 atmosphere in Eagle's basal medium, supplemented with 10% FBS, penicillin (100 units), and streptomycin (100 μg), for 24 hr. Subsequently, the cells were initiated by treatment with 25 μl of the 3-methylcholanthrene (MCA) in acetone stock solution ([…]) to a final concentration of 1 μg/ml of MCA (5 μg/5 ml). The cells were allowed to grow in the presence of the carcinogen or solvent for 24 hr, and the medium in each dish was then replaced with fresh medium containing no carcinogen or solvent. The medium in the dishes was replaced twice per week for the first two weeks of the assay, and thereafter once a week for the remainder four weeks of the assay. In the experiments designed to determine the transformation inhibitory activity of the conjugates, the cells were maintained in the medium containing the conjugates (1 μg/ml) for the first three weeks of the assay; thereafter, the cells were maintained in medium containing no added conjugates.
Six weeks after the carcinogen treatment, the cells were inspected under a microscope for adherence to the culture dishes and were washed with PBS and then fixed in 100% methanol. The fixed monolayers were then stained with Giemsa stain. 20 dishes per group were treated in each experiment. In addition to the test groups, all the transformation assays contained at least three other groups: negative control (not treated with carcinogen or solvent), acetone control (treated with 25 μl of acetone), and positive control [treated with MCA (1 μg/ml) in 25 μl of acetone]. The transformed foci (>3 mm in diameter) in the plates were studied under a microscope and classified according to published guidelines as types I, II, or III [Landolph, J. R. (1985) Transfomatin assay of established cell lines: Mechanism and Application (ed. Kakunaga, T., and Yamasaki, H.) IARC Scientific Publications, Lyon, France pp. 185–201]. Briefly, type III foci were dense, multilayered, basophilic, areas of cell growth which stained to a deep blue color with Giemsa and had rough criss-crossed edges. Type II foci were also dense, multilayered, areas of cell growth, but were stained to a purple color with Giemsa and had smoother, more defined edges compared to Type III foci. Type I foci were not scored in the assay.
BBI, either as the free protein or in conjugated form to palmitic or oleic acid, was added to the cultures at 1.0 μg/ml for the first three weeks of the transformation assay period starting immediately after the MCA treatment. MCA-treated cells were exposed to 3-methylcholanthrene, dissolved in 25 /μl of acetone, at a concentration of 1 μg/ml for 24 hr. Acetone-treated cells were exposed to 25 μl of acetone for 24 hr only. […]

[2] = mouse, in vivo, iv, 3 mg/kg
[3] = system: Human colon carcinoma cells (Caco-2)
Caco-2 monolayers = assay: Transport of single- and multiple-conjugates across Caco-2 monolayers in transwells; type: cell-based, Human; conditions: for order of the transport extent (cumulative transport): Caco-2 transwells, n=3
Description: Confluent cell monolayers, 2 to 3 weeks old, and having a TEER value of approximately 500 Ωcm^2, were first incubated with Dulbecco's MEM containing 1% of FBS for 30 min at 37° C. Subsequently, the incubation medium was removed, and the ^125I-BBI (10 μg/ml) conjugates in 1.5 ml of the medium was added to the apical chamber of the transwells. To the basal chamber, 2.5 ml of the medium was added and the transwells were incubated at 37° C. At predetermined times, the entire basal chamber medium (2.5 ml) from each transwell was removed and counted for radioactivity using a gamma counter. In each experiment, typically seven samples were taken at 1, 2, 3, 4, 5, 6 and 24 hr post-incubation. After the 24 hr samples were taken, the cell monolayers were rinsed three times with ice-cold PBS, cut out of the inserts, and counted for accumulated radioactivity using a gamma counter.
The integrity of the ^125I-BBI conjugates transported across the monolayers was studied using Sephadex G50 gel-filtration chromatography. Briefly, after the basal medium was sampled at 24 hr, 1.0 ml of the medium was centrifuged at 2000 rpm and then eluted from a G50 column (10 ml) using PBS; 1 ml fractions were collected and the fraction-associated radioactivity was determined using a gamma counter. Intact conjugates eluted at column void volume and fragments smaller than 1 kDa were eluted at or above the column volume.
In the transwell experiments, the conjugates were incubated with the apical side of the cells for 1 hr at 37° C. The transwells were then rinsed three times with ice-cold PBS and then reincubated with serum free medium. The release of the conjugates into the apical and the basal medium was chased for 24 hr by counting the entire basal or the apical medium at different times. The total counts obtained at the end of the chase period (transwells+media counts were added, and the release of the conjugates (% of total) at different times was calculated. To ensure that the counts obtained in the transwells at 24 hr were due to the presence of the conjugates in the cells and not non-specific binding to the plastic, the transwells were exposed to trypsin for 10 min, rinsed three times with ice-cold pbs, and subsequently counted for accumulated radioactivity.
BBI was modified with 2 or 4 palmitic acids, and the transport was determined in transwells. The cumulative transport of BBI, BBI modified with 4 palmitic acids, and BBI modified with 2 palmitic acids in Caco-2 monolayers were determined as BBI (ng/monolayer) ± SEM, n=3. The order of the transport extent was BBIssPal(4)>BBI>BBIssPal(2). The results of the internalization of the conjugates into the same cells were determined as the ng of BBI internalized per monolayer. […] The basal media obtained at 24 hr from the transwells was analyzed using a G50 column. […] However, a small, but significant, amount of the basal media of BBIssPal(2) consisted of intact conjugate. This quantity consisted of between about 10 and about 20% of the total radioactivity present in the basal medium.

Cc1ccc2cc3c(ccc4ccccc43)c3c2c1CC3 [MCA, 3-methylcholanthrene, reference compound]
Plating Efficiency (%) (C3H 10T1/2 cells): 21 ± 3.0%
transformed foci in the dishes scored [1]: 6 out of the 19 dishes scored contained type III foci
Fraction of dishes containing transformed foci [1]: 0.32
No. of dishes with transformed foci/No. of dishes [1]: 6/19

B1: BBIssPal: palmityl disulfide conjugate of BBI, made from thiolated BBI and Pal-PDC (conjugate, UniProt P01055 40-110, looked up)
Bowman-Birk type proteinase …: DDESSKPCCDQCACTKSNPPQCRCSDMRLNSCHSACKSCICALSYPAQCFCVDITDFCYEPCKPSEDDKEN
modifications: palmityl disulfide conjugate
notes: palmityl disulfide conjugate of BBI, made from thiolated BBI and Pal-PDC
Plating Efficiency (%) (C3H 10T1/2 cells): 23 ± 3.0%
kidney clearance, fold lower than native-BBI [2]: about 4 fold
liver accumulation, fold higher than BBI [2]: approximately 5 fold
lung accumulation, fold higher than BBI [2]: approximately 2 fold
retention in the liver at 24 hr [2]: remained high in the liver even at 24 hr post-injection
binding to BSA [3]: binds strongly to BSA
internalization, fold increase over that of BBI [3]: 35 fold
reduction of uptake after reduction with DTT [3]: approximately 80%
reduction of uptake by defatted-BSA [3]: 82%
uptake, fold higher than 125I-BBI [3]: approximately 100 fold
uptake, fold higher than native-BBI [3]: 10 fold
uptake, fold higher than that of 125I-BBI [3]: 80 fold
retention of the biological (anti-transformation) activity of BBI [1]: retained the original biological activity of BBI
transformed foci in the dishes scored [1]: one type II focus out of the 20 dishes
Fraction of dishes containing transformed foci [1]: 0.05
No. of dishes with transformed foci/No. of dishes [1]: 1/20

B2: BBIssOleic: oleic acid conjugated BBI, made by the identical procedure as BBIssPal (conjugate, UniProt P01055 40-110, looked up)
Bowman-Birk type proteinase …: B1 Bowman-Birk type proteinase …
modifications: oleic acid disulfide conjugate
notes: oleic acid conjugated BBI, made by the identical procedure as BBIssPal
Plating Efficiency (%) (C3H 10T1/2 cells): 24 ± 3.5%
blood levels, fold higher than BBI [2]: about 4 fold
kidney clearance, fold lower than native-BBI [2]: about 4 fold
liver accumulation, fold higher than BBI [2]: about 4 fold
lung accumulation, fold higher than BBI [2]: about 2 fold
retention in the liver at 24 hr [2]: significant levels of the conjugate present in the liver even at 24 hr post-injection
uptake, fold higher than 125I-BBI [3]: about 108 fold
retention of the biological (anti-transformation) activity of BBI [1]: retained the original biological activity of BBI
transformed foci in the dishes scored [1]: no transformed foci
Fraction of dishes containing transformed foci [1]: 0
No. of dishes with transformed foci/No. of dishes [1]: 0/20

B3: BBIssPal(2): BBI modified with 2 palmitic acids (conjugate, UniProt P01055 40-110, looked up)
Bowman-Birk type proteinase …: B1 Bowman-Birk type proteinase …
modifications: 2 palmityl disulfide groups
notes: BBI modified with 2 palmitic acids
order of the transport extent (cumulative transport) (Caco-2 monolayers): BBIssPal(4)>BBI>BBIssPal(2)

B4: BBIssPal(4): BBI modified with 4 palmitic acids (conjugate, UniProt P01055 40-110, looked up)
Bowman-Birk type proteinase …: B1 Bowman-Birk type proteinase …
modifications: 4 palmityl disulfide groups
notes: BBI modified with 4 palmitic acids
order of the transport extent (cumulative transport) (Caco-2 monolayers): BBIssPal(4)>BBI>BBIssPal(2)
transcytosis across the monolayers (G50 analysis of basal media) (Caco-2 monolayers; basal media at 24 hr): neither BBI nor BBIssPal(4) was transcytosed
internalization into the cells (rank) (Caco-2 monolayers; same Caco-2 monolayers, per monolayer): highest uptake
